In US20040146519A1 one finds relative binding ratio data, which are given here for nine substances.

This assay deals with HLA-A*2401 (human). As to the kind of experiment: inhibition of 125I probe peptide binding to purified HLA.
In the case of “CEA peptide, position 27, 10 amino acids”, the relative binding ratio was determined as 0.03.
For “CEA peptide, position 42, 11 amino acids”, the relative binding ratio is -0.0005.
Take CEA peptide, position 94, 8 amino acids: the relative binding ratio was determined as 0.0003.
For “CEA peptide, position 118, 8 amino acids”, the relative binding ratio was 0.001.
Then “CEA peptide, position 137, 8 amino acids”, with 0.0006.
As for “CEA peptide, position 248, 10 amino acids”, the figure is 0.0002; as for “CEA peptide, position 356, 8 amino acids”, 0.0009; as for “CEA peptide, position 390, 10 amino acids”, 0.0002.
Then “CEA peptide, position 448, 8 amino acids”, with 0.0005.
